For test [1], the target named is cynomolgus monkey TNFR2 overexpressed on CHO-S cells (CHOS-cTNFR2) (cynomolgus monkey). Kind of test: flow cytometry on CHO-S cells overexpressing cynomolgus monkey TNFR2 (negative control), MFI-FL2-A; unit taken from the axis Conc log(nM); the curve stays near the baseline. (In general: In flow cytometry, cells or beads pass a laser one at a time.)
Test [2] has as its target TNFR2 on human K562 chronic myeloid leukemia cells and on primary human Treg cells (human) (UniProt P20333). Briefly: flow cytometry on human K562 CML cells (negative control), MFI(FL2); unit taken from the axis Conc log(nM); the curve stays near the baseline and the value lies beyond the highest concentration shown.
In test [3] the target is human TNFR2 overexpressed on CHO-S cells (CHOS-hTNFR2) (human) (UniProt P20333). Briefly: flow cytometry on CHO-S cells overexpressing human TNFR2 (negative control), MFI-FL2-A; unit taken from the axis Conc log(nM); the curve is flat, so the fit is ambiguous.
The target in test [4] is T1, cynomolgus monkey TNFR2 overexpressed on CHO-S cells (CHOS-cTNFR2) (cynomolgus monkey, UniProt P20333 23-461 (human entry)).
T1 construct: also called cTNFR2 CHO-S
T1 chain: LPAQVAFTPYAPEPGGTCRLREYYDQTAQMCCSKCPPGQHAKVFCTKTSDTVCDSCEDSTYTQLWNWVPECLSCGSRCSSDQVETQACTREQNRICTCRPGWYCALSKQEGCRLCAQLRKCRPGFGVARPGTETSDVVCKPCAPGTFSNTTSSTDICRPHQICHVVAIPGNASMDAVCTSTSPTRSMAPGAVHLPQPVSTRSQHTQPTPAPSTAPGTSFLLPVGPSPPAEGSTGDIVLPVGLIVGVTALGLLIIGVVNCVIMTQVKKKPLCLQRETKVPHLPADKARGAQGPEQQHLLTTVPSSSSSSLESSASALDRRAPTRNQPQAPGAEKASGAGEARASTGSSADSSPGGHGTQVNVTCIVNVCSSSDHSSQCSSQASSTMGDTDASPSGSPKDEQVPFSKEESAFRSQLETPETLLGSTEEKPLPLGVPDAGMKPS
Kind of test: flow cytometry on CHO-S cells overexpressing cynomolgus monkey TNFR2 (hybridoma antibodies), MFI. The method, then:
(§1) In the study, the binding of the hybridoma antibodies (3C4, 69B1, and 72G8) of the present invention, after being diluted in a gradient, to a stable CHO-S cell strain overexpressing human TNFR2 on the surface was assayed by using a flow cytometer.
(§2) CHOS-hTNFR2 cells or CHOS-cTNFR2 cells were counted and diluted to 2×10⁶ cells/mL, and added to a U-bottom 96-well plate at 100 μL/well. The mixture was centrifuged at 300 g for 5 min, and the cell medium was removed. The dilutions of the samples (the hybridoma antibodies 3C4, 69B1, and 72G8 and the positive control antibody OPI) (the antibodies were subjected to a two-fold serial dilution in PBS from the maximum antibody concentration of 300 nM) were added to the U-plate, and the cells were resuspended at 100 μL/well and left to stand on ice for 30 min. The suspension was centrifuged at 400 g for 5 min, and the supernatant was removed. The cells were washed twice with PBS. The mixture was centrifuged at 300 g for 5 min, and PBS was removed. […] The mixture was centrifuged at 400 g for 5 min, and the supernatant was removed. The cells were washed 3 times with PBS. The cells were resuspended in 200 μL of 1×PBS and assayed by FACS.

For test [5], the target named is T2, human TNFR2 overexpressed on CHO-S cells (CHOS-hTNFR2) (human, UniProt P20333 23-461).
T2 construct: also called hTNFR2 CHO-S; human TNFR2 molecule overexpressed on CHO-S cells
T2 sequence: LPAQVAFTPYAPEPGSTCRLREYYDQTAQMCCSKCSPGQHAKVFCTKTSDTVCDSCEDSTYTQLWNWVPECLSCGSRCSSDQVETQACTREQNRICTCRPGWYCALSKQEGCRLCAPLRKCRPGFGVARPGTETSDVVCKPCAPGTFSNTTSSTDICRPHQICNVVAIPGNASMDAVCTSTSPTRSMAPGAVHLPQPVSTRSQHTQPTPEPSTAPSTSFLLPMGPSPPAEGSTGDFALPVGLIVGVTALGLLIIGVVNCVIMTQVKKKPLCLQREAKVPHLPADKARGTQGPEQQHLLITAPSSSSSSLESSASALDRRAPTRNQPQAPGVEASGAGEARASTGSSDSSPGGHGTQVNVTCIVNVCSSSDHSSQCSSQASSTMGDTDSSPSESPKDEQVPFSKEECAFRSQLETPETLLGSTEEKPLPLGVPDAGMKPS
Briefly: flow cytometry on CHO-S cells overexpressing human TNFR2 (hybridoma antibodies), MFI. On the procedure: as §1, §2

For test [6], the target named is T3, rh-TNFR2-His (recombinant human TNFR2, His tag) (human, UniProt P20333 23-257).
T3 construct: Soluble antigen of the ForteBio assay; not shown: His tag
T3 sequence (looked up): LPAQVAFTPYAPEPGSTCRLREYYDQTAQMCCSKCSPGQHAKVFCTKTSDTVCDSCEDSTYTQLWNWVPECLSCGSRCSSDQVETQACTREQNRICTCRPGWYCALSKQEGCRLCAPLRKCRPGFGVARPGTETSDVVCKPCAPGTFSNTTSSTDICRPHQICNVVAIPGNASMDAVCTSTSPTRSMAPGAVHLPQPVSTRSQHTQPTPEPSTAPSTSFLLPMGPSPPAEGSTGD
Briefly: BLI (ForteBio), antibody on sensor, 100 nM rh-TNFR2-His in solution, 1:1 model. The method, then:
(§3) In the present invention, the equilibrium dissociation constant (KD) for the binding of the 3 exemplary chimeric antibodies of the present invention described above to human TNFR2 (hTNFR2), cynomolgus monkey TNFR2 (cTNFR2), murine TNFR2(mTNFR2), and human TNFR1(hTNFR1) was determined by biological optical interferometry (ForteBio). For comparison, the equilibrium dissociation constant (KD) of a positive control antibody OPI (humanized antibody SBT-002e in WO 2017083525, VH sequence of SEQ ID NO: 58, VL sequence of SEQ ID NO: 59) was determined.
(§4) The ForteBio affinity assay was performed according to the prior art (Estep, P, et al., High throughput solution based measurement of antibody-antigen affinity and epitope binning. MAbs, 2013.5(2): p. 270-278). Briefly, a sensor was equilibrated offline in an assay buffer for 30 min, and was equilibrated online for 60 s to establish a baseline. The purified antibodies obtained as described above were loaded online onto an AHQ sensor (ForteBio) for the ForteBio affinity assay. The sensor with the loaded antibodies was then exposed to each of 100 nM hTNFR2, cTNFR2, mTNFR2, and hTNFR1 antigens for 5 min before transferring the sensor to an assay buffer for 5 min of dissociation for dissociation rate measurement. The kinetic analysis was performed using a 1:1 binding model.
On the technique in general: Biolayer interferometry detects binding as a change in optical thickness at a sensor tip.

For test [7], the target named is T2, human TNFR2 overexpressed on CHO-S …. Briefly: flow cytometry on CHO-S cells overexpressing human TNFR2 (chimeric antibodies), MFI-FL2-A; unit taken from the axis Conc log(nM); the curve is still rising to about 29000 at log(nM) 2.5. The method, then:
(§5) In the study, the binding of the chimeric antibodies of the present invention, after being diluted in a gradient, to a stable CHO-S cell strain overexpressing human TNFR2 on the surface was assayed by using a flow cytometer. cDNAs encoding human TNFR2 (SEQ ID NO: 60) and cynomolgus monkey TNFR2 (SEQ ID NO: 61) were cloned into pCH01.0 vectors (Invitrogen), which were transfected into CHO-S cells (Invitrogen) to produce CHO-S cells overexpressing human TNFR2 (CHOS-hTNFR2) and CHO-S cells overexpressing cynomolgus monkey TNFR2 (CHOS-cTNFR2).
(§6) CHOS-hTNFR2 cells or CHOS-cTNFR2 cells were counted and diluted to 2×10⁶ cells/mL, and added to a U-bottom 96-well plate at 100 μL/well. The mixture was centrifuged at 300 g for 5 min, and the cell medium was removed. The dilutions of the samples (the chimeric antibodies 3C4, 69B1, and 72G8 and the positive control antibody OPI) (the antibodies were subjected to a three-fold serial dilution in PBS from the maximum antibody concentration of 300 nM) were added to the U-plate, and the cells were resuspended at 100 μL/well and left to stand on ice for 30 min. The suspension was centrifuged at 400 g for 5 min, and the supernatant was removed. The cells were washed twice with PBS. The mixture was centrifuged at 300 g for 5 min, and PBS was removed. […]

In test [8] the target is T1, cynomolgus monkey TNFR2 overexpressed …. Kind of test: flow cytometry on CHO-S cells overexpressing cynomolgus monkey TNFR2 (chimeric antibodies), MFI-FL2-A; unit taken from the axis Conc log(nM); the curve is still rising at log(nM) 2.5, no upper plateau. The method, then: as §5, §6
The target in test [9] is T4, CYNO-TNFR2-His (cynomolgus monkey TNFR2, His tag) (cynomolgus monkey, UniProt A0A2K5VET2 132-366).
T4 construct: Soluble antigen of the ForteBio assay; also called cTNFR2; not shown: His tag
T4 sequence: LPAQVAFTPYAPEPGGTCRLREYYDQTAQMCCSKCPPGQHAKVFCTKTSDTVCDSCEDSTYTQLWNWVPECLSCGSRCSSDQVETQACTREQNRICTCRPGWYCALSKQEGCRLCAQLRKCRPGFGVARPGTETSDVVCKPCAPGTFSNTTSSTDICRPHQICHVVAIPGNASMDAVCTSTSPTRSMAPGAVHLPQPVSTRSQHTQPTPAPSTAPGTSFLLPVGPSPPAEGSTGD
Briefly: BLI (ForteBio), antibody on sensor, 100 nM CYNO-TNFR2-His in solution, 1:1 model. On the procedure: as §3, §4

Turning to IgG (antibody), the EC50 amounted to 0.00112 µM in [1], 0.0223 µM in [2] and 13500 µM in [3].

B1: hybridoma antibody 69B1 (antibody, V domains shown)
VH: QIQLVQSGPELKKPGETVKISCKASGYTFTDYSMNWVKQAPGKGLKWMGWLNTETGEPIYADDFKGRFVFSLETSASTAYLEINNLNDEDTATYFCAREAIYYGTSYVLDYWGQGTSVTVSS
VL: DIVLTQSPASLAVSLGQRATISCRASESVEYYGTNFMQWYQQKPGQPPKLLIYSASNVESGVPARFSGSGSGTDFSLNIHPVEEDDIAVYFCQQSRKDPSTFGEGTNLEIK
notes: Murine antibody from the hybridoma (detected with anti-mouse IgG)
For B1, the “EC50 (read off the curve)” value in test [4] and in test [5] was approximately 0.001 µM in each case.

B2: chimeric antibody 72G8 (antibody, human IgG1, kappa, V domains shown)
VH: EVQLQQSGAELARPGASVMLSCKASGYTFTSYWMQWLKQRPGQGLEWIGAIYPGDGDTRYTQKFKGKATLTADKSSSTAYMQLSSLASEDSAVYYCVRDDGLYYAMDYWGQGTSVTVSS
VL: QIVLTQSPTIMSASLGERVTMTCTASSSVSSSYLHWYQQKPGSSPKLWIYSTSNLASGVPARFSGSGSGTSYSLTISSMEAEDAATYYCHQYHRSPPTFGGGTKLEIKR
B2: in [6], the Kd turned out to be 0.00451 µM, the koff was 0.00515 s⁻¹ and the kon was determined as 1.14e+06 M⁻¹ s⁻¹. Moreover, in test [7], the midpoint of the response, the EC50, lay at 0.0284 µM. In [8], this molecule displayed an EC50 of 0.122 µM. In test [9], this molecule had a Kd of 0.00311 µM, a koff of 0.00509 s⁻¹ and a kon of 1.64e+06 M⁻¹ s⁻¹.

For orientation: EC50 means the concentration at which the effect is half-maximal. For orientation: EC50 (read off the curve) means the concentration at which the effect is half-maximal. Usually Kd stands for the constant that tells how readily two partners part at equilibrium. A word on the koff: it is the first-order rate constant of dissociation. A word on the kon: it is the second-order rate constant of association.

The values above are taken from patent publication US20240026019A1 (Innovent, published 2024).
